Here are results for 4 molecules from patent publication US7125979.

What all share (assay): cell-based or functional assay
The target in assay [1] is NPY Y2 receptor (mouse) (UniProt P97295).
Assay [2] concerns the target MC3-R (mouse) (UniProt P33033).
Assay [3] deals with µ-opioid receptor (mouse) (UniProt P42866).

Non-standard residues stand in square brackets, D forms with d. No end group written: not given here.

Chain of MC3-R (mouse) (P33033 whole entry): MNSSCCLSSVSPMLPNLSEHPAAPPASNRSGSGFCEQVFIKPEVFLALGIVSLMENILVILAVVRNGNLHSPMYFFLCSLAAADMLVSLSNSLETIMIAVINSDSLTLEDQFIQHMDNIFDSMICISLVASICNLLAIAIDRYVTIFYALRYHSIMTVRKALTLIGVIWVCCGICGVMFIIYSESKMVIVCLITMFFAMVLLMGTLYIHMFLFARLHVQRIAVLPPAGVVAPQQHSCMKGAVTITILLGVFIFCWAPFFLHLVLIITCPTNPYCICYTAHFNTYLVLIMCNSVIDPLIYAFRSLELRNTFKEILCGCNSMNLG
Chain of µ-opioid receptor (mouse) (P42866 whole entry): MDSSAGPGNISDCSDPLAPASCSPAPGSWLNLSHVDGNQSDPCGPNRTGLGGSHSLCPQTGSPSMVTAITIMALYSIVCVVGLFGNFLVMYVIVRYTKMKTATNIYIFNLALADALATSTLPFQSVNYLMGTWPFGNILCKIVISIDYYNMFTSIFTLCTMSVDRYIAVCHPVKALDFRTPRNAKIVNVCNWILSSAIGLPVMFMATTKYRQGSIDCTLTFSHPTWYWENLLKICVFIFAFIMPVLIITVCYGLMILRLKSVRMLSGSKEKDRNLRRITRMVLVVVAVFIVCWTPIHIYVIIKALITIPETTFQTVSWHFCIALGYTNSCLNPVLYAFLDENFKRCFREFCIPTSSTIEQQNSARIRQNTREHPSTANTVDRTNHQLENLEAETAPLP
Chain of NPY Y2 receptor (mouse) (P97295 whole entry): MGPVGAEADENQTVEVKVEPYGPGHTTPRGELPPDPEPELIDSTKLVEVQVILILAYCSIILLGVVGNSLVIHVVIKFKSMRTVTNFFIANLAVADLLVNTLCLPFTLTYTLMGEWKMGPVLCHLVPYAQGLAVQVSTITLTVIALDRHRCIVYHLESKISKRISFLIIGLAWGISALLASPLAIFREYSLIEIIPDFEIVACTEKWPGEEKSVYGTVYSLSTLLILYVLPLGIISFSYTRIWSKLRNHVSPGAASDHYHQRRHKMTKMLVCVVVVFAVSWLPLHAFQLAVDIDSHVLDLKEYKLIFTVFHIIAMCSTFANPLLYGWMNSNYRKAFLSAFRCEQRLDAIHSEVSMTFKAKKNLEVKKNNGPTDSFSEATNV

In assay [1], “neuropeptide Y (from UniProt P01303 29-64)” registered a decrease of the frequency of GABAergic IPSCs in POMC cells (100 nM NPY) of 55%.

“N-acetyl (Leu^28, Leu^31) NPY (24-36) (from UniProt P01303 52-64) (peptide)” registered a reduction of the frequency of inhibitory postsynaptic currents (IPSCs) onto POMC neurons in assay [1] of 44.4%.

B1: D-Trp^8-γMSH (peptide, UniProt P01189 77-88, looked up)
peptide: YVMGHFR[dW]DRFG
modifications: ends and bridges not checked
In assay [2], B1 returned a frequency of GABAergic IPSCs recorded from POMC neurons (7 nM) of 280% and a hyperpolarization of POMC neurons (7 nM) of -5.5 mV.

B2: met-enkephalin (peptide, UniProt P01210 100-104, looked up)
peptide: YGGFM
In assay [3], B2 showed a hyperpolarization of the membrane potential of POMC cells (whole cell recording, 30 µM Met-Enk) of 10 to 20 mV.
